Experimental data from paper doi:10.1101/791277.

What was measured:
p85β nSH2, 312-425 = p85β nSH2, 312-425 (UniProt O08908); experiment: fluorescence polarization titration; conditions: reference: unphosphorylated p85β peptide; sites Y599
p85α nSH2, 325-430 = p85α nSH2, 325-430 (UniProt P27986); experiment: fluorescence polarization titration; conditions: reference: unphosphorylated p85β peptide; sites Y599
Chain of p85α nSH2, 325-430 (P27986 whole entry, looked up, tested part not stated): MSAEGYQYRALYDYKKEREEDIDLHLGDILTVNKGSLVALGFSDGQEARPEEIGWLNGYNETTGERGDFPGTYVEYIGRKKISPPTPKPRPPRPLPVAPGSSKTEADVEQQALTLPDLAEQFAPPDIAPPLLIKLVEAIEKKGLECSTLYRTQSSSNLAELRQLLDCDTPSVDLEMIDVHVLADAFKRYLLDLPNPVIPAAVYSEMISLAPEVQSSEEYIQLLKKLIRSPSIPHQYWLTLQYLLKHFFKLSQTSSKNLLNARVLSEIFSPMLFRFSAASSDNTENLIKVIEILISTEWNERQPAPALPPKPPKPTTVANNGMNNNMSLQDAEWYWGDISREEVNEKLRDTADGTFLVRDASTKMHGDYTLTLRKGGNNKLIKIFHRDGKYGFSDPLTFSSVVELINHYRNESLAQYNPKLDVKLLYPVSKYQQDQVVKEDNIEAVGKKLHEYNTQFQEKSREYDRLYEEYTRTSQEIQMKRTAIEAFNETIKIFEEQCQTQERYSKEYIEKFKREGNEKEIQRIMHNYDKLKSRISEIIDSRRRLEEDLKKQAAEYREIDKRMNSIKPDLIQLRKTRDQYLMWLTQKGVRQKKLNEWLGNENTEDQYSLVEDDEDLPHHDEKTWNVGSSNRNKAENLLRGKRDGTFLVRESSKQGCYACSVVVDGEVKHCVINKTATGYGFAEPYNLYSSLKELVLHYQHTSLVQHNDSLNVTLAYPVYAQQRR

Chain of p85β nSH2, 312-425 (O08908 whole entry, looked up, tested part not stated): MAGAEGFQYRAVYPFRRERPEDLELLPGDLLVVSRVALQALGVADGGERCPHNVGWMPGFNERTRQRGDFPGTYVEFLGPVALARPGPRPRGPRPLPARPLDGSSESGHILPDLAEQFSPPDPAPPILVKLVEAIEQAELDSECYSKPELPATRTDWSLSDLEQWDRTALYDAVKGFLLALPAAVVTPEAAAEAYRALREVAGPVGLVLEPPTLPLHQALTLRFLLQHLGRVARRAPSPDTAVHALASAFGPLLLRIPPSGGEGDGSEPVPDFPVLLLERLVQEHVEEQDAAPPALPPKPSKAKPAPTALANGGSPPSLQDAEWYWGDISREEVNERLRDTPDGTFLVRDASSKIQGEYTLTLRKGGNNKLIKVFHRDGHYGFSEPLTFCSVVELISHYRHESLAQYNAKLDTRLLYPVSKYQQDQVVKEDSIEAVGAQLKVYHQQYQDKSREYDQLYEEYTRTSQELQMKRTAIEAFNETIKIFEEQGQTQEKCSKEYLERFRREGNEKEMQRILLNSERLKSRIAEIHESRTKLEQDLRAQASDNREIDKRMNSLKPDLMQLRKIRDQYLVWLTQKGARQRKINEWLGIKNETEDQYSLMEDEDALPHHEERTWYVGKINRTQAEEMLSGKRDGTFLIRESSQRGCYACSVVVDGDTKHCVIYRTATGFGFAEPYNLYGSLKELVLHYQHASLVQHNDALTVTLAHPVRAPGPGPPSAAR
Chain of p85β (O08908 312-425, stated change not applied): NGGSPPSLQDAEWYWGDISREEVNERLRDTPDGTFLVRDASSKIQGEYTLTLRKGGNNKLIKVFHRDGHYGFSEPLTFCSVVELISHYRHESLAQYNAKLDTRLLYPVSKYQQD

Substance: p85β (from UniProt O08908) phospho-p85β peptide
- binding against the reference (p85β nSH2, 312-425): gained
- binding against the reference (p85α nSH2, 325-430): gained
